No end group written: not given here. *: point of attachment. FITC‑N3 = fluorescein azide; Pent4ynoyl = C#CCCC(=O)*; AEEA = NCCOCCOCC(=O)O
What was measured:
[1] = target: T1, hRpn13 (1–150), which includes the Pru domain (human, UniProt Q16186 1-150); assay: ITC; 25 °C; 200 μM hRpn2 peptide injected into 20 μM or 18 μM hRpn13 Pru in the cell; 20 mM sodium phosphate, 50 mM NaCl, 10 mM βME, pH 7.0; one-site fit; conditions: both partners purified
T1 construct: hRpn13/Adrm1, human, residues M1-L150 (Pru domain; N-terminal 19 and C-terminal 20 residues randomly coiled); Isotope-labelled (15N, 13C) in some NMR samples; also called hRpn13 Pru; hRpn13 Pru (1–150); not shown: His tag, N-terminal, cleaved
T1 sequence (Q16186 1-150): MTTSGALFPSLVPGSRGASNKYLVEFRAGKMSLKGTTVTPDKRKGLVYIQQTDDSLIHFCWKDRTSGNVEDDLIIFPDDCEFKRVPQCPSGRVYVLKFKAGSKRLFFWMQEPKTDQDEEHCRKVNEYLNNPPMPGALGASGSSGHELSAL

full-length hRpn13 = target: T2, full-length hRpn13 (human, UniProt Q16186 1-407); assay: fluorescence polarisation; 10 nM FITC-hRpn2 (940–953) with serially diluted full-length hRpn13; 20 mM sodium phosphate, 50 mM NaCl, pH 6.5; room temperature, 30 min; Hill slope model; also with 100 μM RA190 or 2% DMSO; conditions: both partners purified
T2 construct: hRpn13/Adrm1, human, full-length protein (Pru and DEUBAD domains); The preparation of the full-length protein is not described; it was not held on Talon resin by itself in the pull-down, so it probably carried no His tag; also called hRpn13 full-length protein; Adrm1; source: purified recombinant protein
T2 sequence (Q16186 whole entry, the tested form may be a part): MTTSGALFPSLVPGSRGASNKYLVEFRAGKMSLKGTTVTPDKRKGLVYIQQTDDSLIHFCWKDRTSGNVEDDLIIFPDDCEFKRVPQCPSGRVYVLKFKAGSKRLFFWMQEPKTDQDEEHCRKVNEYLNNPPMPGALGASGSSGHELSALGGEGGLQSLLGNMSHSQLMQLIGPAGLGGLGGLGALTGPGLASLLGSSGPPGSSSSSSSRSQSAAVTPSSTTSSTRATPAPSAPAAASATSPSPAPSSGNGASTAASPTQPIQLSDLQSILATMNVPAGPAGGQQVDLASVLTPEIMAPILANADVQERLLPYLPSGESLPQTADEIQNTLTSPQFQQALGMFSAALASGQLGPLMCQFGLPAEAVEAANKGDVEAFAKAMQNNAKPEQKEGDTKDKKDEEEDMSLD

Kd [1] | Kd (full-length hRpn13) | Binder
1960 ± 220 nM | – | PPEPFEYIDD (source: synthetic peptide (Fmoc chemistry on Wang resin, HPLC purified)) [hRpn2 (944–953)]
– | 14.7 nM | {FITC‑N3-Pent4ynoyl-AEEA}-QEPEPPEPFEYIDD (also called FITC-labelled hRpn2 probe; source: synthetic peptide (Fmoc solid-phase synthesis, click coupling to FITC-N3, HPLC purified)) [FITC-hRpn2 (940–953)]
27 ± 10 nM | – | QEPEPPEPFEYIDD (The author contributions say that peptides were synthesized for the DSF experiment, so the DSF sample may be a synthetic peptide of the same limits; also called hRpn2 peptide; hRpn2 fragment; source: E. coli BL21(DE3) pLysS, purified (Glutathione S-sepharose 4B, PreScission cleavage, Superdex75); not shown: GST, N-terminal, cleaved) [hRpn2 (940–953)]

From article PMC5494190, “Structure of the Rpn13-Rpn2 complex provides insights for Rpn13 and Uch37 as anticancer targets” (Nature Communications, 2017)
